Data taken from patent US20050182242A1, “Global analysis of protein activities using proteome chips” (priority 2001, published 2005).

B1: GFD1: yeast GST-HisX6 fusion protein on proteome chip (protein, UniProt Q04839 1-188, looked up)
mRNA transport factor GFD1: MPLESIWADAPDEEPIKKQKPSHKRSNNNKKNNNSRWSNESSSNNKKKDSVNKVKNNKGNHESKTKNKIKETLPREKKPPHSQGKISPVSESLAINPFSQKATEISPPPVSPSKMKTTKTQSKQDTASKMKLLKKKIEEQREILQKTHHKNQQQQVLMDFLNDEGSSNWVDDDEEELILQRLKTSLKI
modifications: GST-His6 tag
notes: yeast GST-HisX6 fusion protein on proteome chip
B2: MPD2: yeast GST-HisX6 fusion protein on proteome chip (protein, UniProt Q99316 23-277, looked up)
Protein disulfide isomerase …: YSEAVTMVKSIEQYFDICNRNDSYTMIKYYTSWCQHCKTLAPVYEELGELYAKKANKDDTPINFLEVNCEFFGPTLCTDLPGFPIIELVKPRTKPLVLPKLDWSSMKFHERLWQRIKTWFNNPKYQLDTSRVVRFEGSRNLKSLSNFIDTVRSKDTEERFIEHIFDDSRNCNEELRSQQLLCKAGKEYYSDTLSKLYGDVNGLEKERRRLEALIKQNGDDLSKEVKEKLKIIRLQLSLLSHIEDQLEDTSSHDEL
modifications: GST-His6 tag
notes: as for B1
B3: DFG5: yeast GST-HisX6 fusion protein on proteome chip (protein, UniProt Q05031 27-437, looked up)
Mannan …: MDLDTTSKTSICDATALIQGGMLDYYEGTRYGGTVGMFQSPYYWWHAGEAFGGMLENWFLCENDTYQELLYDALLAQTGSNYDYIPSNQTMVEGNDDQGIWGITVMGAVERNFTDPGDGKPGWLAMVQAVFNTMYSRWDSEHCGGGLRWQIFTWNSGYNYKNTVSNACLFQIAARLGRYTGNTTYLEVAEQVFDWLVDVGYVVLNDTANVFDGAEIDTNCTDITKIEWTYNHGIVLGGLAYMYNATNGTGEWETSLTKILNGAKSYFFKDSIMYESACQDYGTCNTDQRTFKSIFSRMLGLTSVMAPFTRDTIDDLIKTSAEAAAKSCNGGTDGHTCGLNWQKQTNDGYYGLGEQMSALEVIQNLLIHDRPAPYKEDNGGTSKGDANAGMNSSTTNVLQNNLNIKKGDRAG
modifications: GST-His6 tag
notes: as for B1
B4: CCT8: yeast GST-HisX6 fusion protein on proteome chip (protein, UniProt P47079 1-568, looked up)
T-complex protein 1 subunit …: MSLRLPQNPNAGLFKQGYNSYSNADGQIIKSIAAIRELHQMCLTSMGPCGRNKIIVNHLGKIIITNDAATMLRELDIVHPAVKVLVMATEQQKIDMGDGTNLVMILAGELLNVSEKLISMGLSAVEIIQGYNMARKFTLKELDEMVVGEITDKNDKNELLKMIKPVISSKKYGSEDILSELVSEAVSHVLPVAQQAGEIPYFNVDSIRVVKIMGGSLSNSTVIKGMVFNREPEGHVKSLSEDKKHKVAVFTCPLDIANTETKGTVLLHNAQEMLDFSKGEEKQIDAMMKEIADMGVECIVAGAGVGELALHYLNRYGILVLKVPSKFELRRLCRVCGATPLPRLGAPTPEELGLVETVKTMEIGGDRVTVFKQEQGEISRTSTIILRGATQNNLDDIERAIDDGVAAVKGLMKPSGGKLLPGAGATEIELISRITKYGERTPGLLQLAIKQFAVAFEVVPRTLAETAGLDVNEVLPNLYAAHNVTEPGAVKTDHLYKGVDIDGESDEGVKDIREENIYDMLATKKFAINVATEAATTVLSIDQIIMAKKAGGPRAPQGPRPGNWDQED
modifications: GST-His6 tag
notes: as for B1

system: phosphatidylcholine (PC) liposomes; test: Yeast proteome chip probed with PC liposomes; details: liposome binding signal on yeast proteome chip, Cy3-streptavidin detection
Excerpt: (§1) To identify PI-binding proteins in yeast, liposomes were used as probes because the liposome provides the most relevant physiological condition to assay the interactors. Six types of liposomes were used. Each contains phosphatidylcholine (“PC”) with 1% (w/w) N-(biotinoyl)-1,2-dihexadecanoyl-sn-glycero-3-phosphoethanolamine, triethylammonium salt (biotin DHPE). The biotinylated lipid serves as a label that can be detected by Cy3-streptavidin (21). In addition to PC, the five other liposomes contain either 5% (w/w) PI(3)P, PI(4)P, PI(3,4)P2, PI(4,5)P2, or PI(3,4,5)P3 (FIG. 3A).
(§2) The protein-liposome interaction was assayed as follows. Appropriate amounts of each lipid in chloroform were mixed and dried under nitrogen. The lipid mixture was resuspended in TBS buffer by vortexing. The liposomes were created by sonication. Blocked proteome chips were washed three to five times in PBS buffer, and the extra liquid on the glass surface was removed by tapping the slides vertically on a KIMWIPE™. 200 μl of liposome solution was added to the proteome chip and immediately covered by a hydrophobic plastic cover slip (GRACE BIO-LAB™, USA). After trapped air bubbles were removed, the chip was incubated in a humidity chamber at RT for one hour. To remove the cover slip, the chip was immersed into large volume of PBS buffer (50 ml), so that the slip would float away. The chip was then moved to a second PBS bath (>50 ml) and washed 3×5 min with shaking at RT. After removing extra liquid on the surface of the chip, about 100 μl of Cy3 or Cy5 conjugated streptavidin (PIERCE™, USA; 1:2000 to 1:4000 dilution) was added to the surface and covered by a hydrophobic plastic cover slip (GRACE BIO-LABS™, USA). The chip was incubated for greater than 30 min in the dark at RT. The chip was then washed as described above. To completely remove the liquid on the chip, the chip was spun to dryness at 1500-2000 rpm for 5-10 min at RT.
(§3) • 1. S. Fields, Y. Kohara, D. J. Lockhart, Proc. Natl. Acad. Sci. 96, 8825 (1999); A. Goffeau et al., Science 274, 563 (1996). • 2 P. Ross-Macdonald et al., Nature 402, 413 (1999); J. L., DeRisi, V. R. Iyer, P. O. Brown, Science 278, 680 (1997); E. A. Winzeler et al., Science 285, 901 (1999). P. Uetz et al., Nature 403, 623 (2000); T. Ito et al., Proc. Natl. Acad. Sci. USA. 97, 1143 (2000) • 3 H. Zhu, M. Snyder, Curr. Opin. Chem. Biol. 5, 40 (2001). • 4 M. R. Martzen et al., Science 286, 1153 (1999). • 5 H. Zhu et al., Nat. Genet. 26, 283 (2000). • 6 G. MacBeath, S. L. Schreiber, Science 289, 1760 (2000). • 7 A. Caveman, J. Cell Sci. 113, 3543 (2000). • 8 P. Arenkov et al., Anal. Biochem 278, 123 (2000). • 9 D. A. Mitchell, T. K. Marshall, R. J. Deschenes, Yeast 9, 715 (1993). The expression vector pEGH was created by inserting an RGS-HisX6 epitope tag between the GST gene and the polycloning site of pEG(KG). The yeast ORFs were cloned using the strategy described previously (5), except every step was done in a 96-well format. Plasmid DNAs confirmed by DNA sequencing were reintroduced into both yeast (Y258) and E. coli (DH5a). […] 0.1 mM calcium was present in buffers in all subsequent steps. The chip was washed three times with PBS at RT. Cy3-conjugated streptavidin (Jackson IR, USA) (1:5000 dilution) was added to the chip and incubated for 30 min at RT. After extensive washing, the chip was spun dry and scanned using a microarray scanner; the data was subsequently acquired with the GENEPIX™ array densitometry software (Axon, USA). • 12 S. S. Hook, A. R. Means, Annu. Rev. Pharmacol. Toxicol.41, 471 (2001). • 13 M. S. Cyert, R. Kunisawa, D. Kaim, J. Thorner, Proc. Natl. Acad. Sci. USA 88, 7376 (1991). • 14 D. A. Stirling, K. A. Welch, M. J. Stark, EMBO J. 13, 4329 (1994). • 15 F. Bohl, Kruse, EMBO J. 19, 5514 (2000); E. Bertrand et al., Mol. Cell 2, 437 (1998). • 16 D. C. Winter, E. Y. Choe, R. Li, Proc. Nat. Acad Sci. USA 96, 7288 (1999). • 17 C.

Molecule | PC
B1 | 4.99
B2 | 25.24
B3 | 127.66
B4 | 22.30

system: PI(3,4,5)P3 liposomes; test: Yeast proteome chip probed with PI(3,4,5)P3 liposomes; details: liposome binding signal on yeast proteome chip, Cy3-streptavidin detection
Excerpt: as §1, §2, §3

Molecule | PI(3, 4, 5)P3
B1 | 3.38
B2 | 15.07
B3 | 60.98
B4 | 33.97

system: PI(3,4)P2 liposomes; test: Yeast proteome chip probed with PI(3,4)P2 liposomes; details: liposome binding signal on yeast proteome chip, Cy3-streptavidin detection
Excerpt: as §1, §2, §3

Molecule | PI(3, 4)P2
B1 | −0.78
B2 | 31.71
B3 | 48.66
B4 | 7.53

system: PI(4,5)P2 liposomes; test: Yeast proteome chip probed with PI(4,5)P2 liposomes; details: liposome binding signal on yeast proteome chip, Cy3-streptavidin detection
Excerpt: as §1, §2, §3

Molecule | PI(4, 5)P2
B2 | 8.71

system: PI(4)P liposomes; test: Yeast proteome chip probed with PI(4)P liposomes; details: liposome binding signal on yeast proteome chip, Cy3-streptavidin detection
Excerpt: as §1, §2, §3

Molecule | PI(4)P
B1 | −0.22
B2 | 37.45
B3 | 19.81
B4 | 23.52
